Usually stoichiometry N stands for a count of units in the complex or per binding partner.

The values below come from article PMC8063088.

In assay [1] the target is NET1_(ΔNTR) 'Interface-1' mutant (F55R), made with an N-terminal His6-SUMO tag (human) (UniProt O95631). In words: AUC; sedimentation velocity, 20 °C; binary NEO1_(FN456)-NET1_(ΔNTR) complexes (NET1 wild type at different concentrations, or Interface-1/-2 mutants) mixed equimolar, 10 mM HEPES pH 7.5, 150 mM NaCl, 2 mM CaCl2.
Assay [2] concerns the target NET1_(ΔNTR) 'Interface-2' mutant (Q443N/R445T), made with an N-terminal His6-SUMO tag (human) (UniProt O95631). Described as above.
The target in assay [3] is NET1_(ΔNTR)^F55R with C-terminal biotinylated Avi-tag (SPR ligand) (human) (UniProt O95631). Briefly: SPR; NEO1/DCC:NET1 binding site analysis; biotinylated NET1_(ΔNTR) wild type, Interface-1 and Interface-2 mutants captured at 1007, 1027 and 937 RU; analytes NEO1 and DCC FN456 and FN56, two-fold series from 50 μM; equilibrium, one-site model; 25 °C, 10 mM HEPES pH 7.5, 150 mM NaCl, 0.05% polysorbate-20, 1 mg/ml BSA. On the technique in general: Surface plasmon resonance follows binding to a sensor surface in real time, without labels.

Assay [4] has as its target NET1_(ΔNTR)^Q443N/R445T with C-terminal biotinylated Avi-tag (SPR ligand) (human) (UniProt O95631). The description is as above.
For the next assay, the target named is 1D4-tagged NET1_(ΔNTR) (UniProt O95631). In words: proximity ligation assay (PLA). The following applies: COS-7 cells co-transfected with NEO1-mVenus and full-length RGMB, incubated with NET1ΔNTR; p = 0.0107; parent: est. 59; read off a plot.

Take “NEO1 FN type III domains 4 to 6 (NEO1_(FN456)) (domain or fragment)”: the stoichiometry N in assay [1] and in assay [2] was 1 NET1:NEO1 each time. Also, the fold lower affinity than wild-type NET1 (ΔNTR) in assay [3] was 10 fold. In addition, the fold reduction of binding against wild-type NET1 (ΔNTR) in assay [4] turned out to be 2 fold.

Regarding “full-length GPI-anchored RGMB (RGMBFL), N-terminal FLAG (from UniProt Q6NW40) A186R”, in the assay with 1D4-tagged NET1_(ΔNTR), the response (No. of PLA foci) was 22.
